This experiment addresses IL-8 receptors on human neutrophils. The experiment in a line: unlabeled IL-8 displaces 125I-IL-8 from IL-8 receptors on human neutrophils; value in the legend box without a column head, IC50.

Experimental findings from US20070048219A1 are described below.

The IC50 is the concentration needed to halve the response being measured. High values mean weaker potency, low ones greater potency. As to “recombinant human IL-8, (ser-IL-8)72 (from UniProt P10145 28-99) (ligand)”, the concentration for half-maximal inhibition (IC50) amounted to 0.078 nM.
